Patent US20140127211A1 (Pfizer, published 2014)
Like-named read-outs stand apart in the source and are kept apart here.

Experiments:
[1] = biological target: T1, full-length human Notch3 expressed on the cell surface (human, UniProt Q9UM47 40-2321); assay: cell-based or functional assay
[2] = biological target: T1, full-length human Notch3 expressed on …; assay: cell-based or functional assay; remark: listed apart in the source
[3] = biological target: T1, full-length human Notch3 expressed on …; assay: cell-based ELISA, HCC2429 cells; SD 0.025
Procedure: (§1) On the day of the ELISA, culture media was removed from wells and serially diluted (1:3 in DPBS with calcium chloride and magnesium chloride (Ca/Mg) and 1% BSA) antibody and ADC solutions were applied to the plate. Plates were incubated at room temperature for 2 hours before washed with DPBS with Ca/Mg and 1% BSA. HRP-conjugated secondary antibody was then applied and incubated with cells for 1 hour. Plates were washed with DPBS with Ca/Mg and 1% BSA before being developed with Pico-Chemiluminescent developing kit (Thermal Scientific), and chemiluminescence measurements were performed per manufacturer's instructions. Data plotting and analyses were performed with Microsoft Excel and Graphpad-Prism software.

[4] = biological target: T1, full-length human Notch3 expressed on …; assay: cell-based ELISA, MDA-MB-468 cells; SD 0.063
Procedure: as §1

[5] = biological target: T1, full-length human Notch3 expressed on …; assay: cell-based ELISA, U2OS/hNotch3 cells; SD 0.029
Procedure: as §1

[6] = biological target: T1, full-length human Notch3 expressed on …; assay: cell-based or functional assay; remark: listed apart in the source
[7] = biological target: T2, human Notch3 NRR recombinant protein (Notch3 NRR_Avi_His tag) (human); assay: ELISA, plate-coated recombinant protein
T2 construct: Purified from CHO-PACE cells; the entry includes the C-terminal Avi and His6 tag
T2 chain: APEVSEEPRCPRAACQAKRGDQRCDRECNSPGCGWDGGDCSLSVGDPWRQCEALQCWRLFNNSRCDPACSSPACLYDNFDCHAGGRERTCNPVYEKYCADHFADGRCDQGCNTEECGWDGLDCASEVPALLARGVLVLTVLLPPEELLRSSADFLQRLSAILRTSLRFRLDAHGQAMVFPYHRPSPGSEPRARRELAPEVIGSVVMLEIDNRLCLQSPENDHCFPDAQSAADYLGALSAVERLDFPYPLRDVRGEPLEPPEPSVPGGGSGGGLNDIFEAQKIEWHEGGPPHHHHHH
Procedure: Purified human or mouse Notch3 NRR recombinant proteins were coated on CoStar hi-bound 96-well ELISA plates in 100 μl of PBS with Mg/Ca at a concentration of 1 μg/ml overnight. The plates were washed with PBS-Mg/Ca and blocked for 1 hour with 1% BSA in PBS-Mg/Ca. Blocking solution was decanted from the plate and 1:3 serial dilutions of antibodies in blocking solutions were applied to the plate. After incubation at room temperature for 1 hour, plates were washed again with PBS-Mg/Can before HRP (horse radish peroxidase)-conjugated secondary antibody diluted (1:20,000) in blocking buffer was applied. When the primary antibody tested was rat IgG, the secondary antibody was goat anti-rat IgG Fc (Bethyl Biotech); and when the primary antibody was human IgG, the secondary antibody was goat anti-human IgG Fc (Southern Biotech).
After 1 hour incubation with the secondary antibody, plates were washed again, as described above, and TMB substrate solution was added. The developing reaction was allowed for 10 minutes before the stopping solution, 0.18M H₂SO₄, was added.

[8] = biological target: T1, full-length human Notch3 expressed on …; assay: cell-based ELISA, U2OS/hNotch3 cells
Procedure: (§2) U-2 OS cells stably over-expressing human or mouse full length Notch3 protein on cell surface (hereinafter U2OS/hNotch3 and U2OS/mNotch3, respectively) were plated at 50,000 cells/well in 96 well plates (white opaque, BD/VWR) the day before ELISA assay. On the day of the ELISA, culture media was removed from wells and serially diluted (1:3 in blocking buffer) antibody solutions were applied to the plate. Plates were incubated at room temperature for 2 hours before being washed with PBS-Mg/Ca. HRP-conjugated secondary antibody was then applied and incubated with cells for 1 hour as described above for recombinant protein ELISA. Plates were washed with PBS-Mg/Ca before being developed with Pico-Chemiluminescent developing kit (Thermal Scientific), and chemiluminescence measurements were performed per manufacturer's instructions. Data plotting and analyses were performed with Microsoft Excel and Graphpad-Prism software.

[9] = biological target: T3, full-length mouse Notch3 expressed on the cell surface (mouse, UniProt Q61982 40-2318); assay: cell-based ELISA, U2OS/mNotch3 cells
T3 construct: whole, on cells; Over-expressed on U-2 OS cells; also called U2OS/mNotch3
T3 sequence (Q61982 40-2318): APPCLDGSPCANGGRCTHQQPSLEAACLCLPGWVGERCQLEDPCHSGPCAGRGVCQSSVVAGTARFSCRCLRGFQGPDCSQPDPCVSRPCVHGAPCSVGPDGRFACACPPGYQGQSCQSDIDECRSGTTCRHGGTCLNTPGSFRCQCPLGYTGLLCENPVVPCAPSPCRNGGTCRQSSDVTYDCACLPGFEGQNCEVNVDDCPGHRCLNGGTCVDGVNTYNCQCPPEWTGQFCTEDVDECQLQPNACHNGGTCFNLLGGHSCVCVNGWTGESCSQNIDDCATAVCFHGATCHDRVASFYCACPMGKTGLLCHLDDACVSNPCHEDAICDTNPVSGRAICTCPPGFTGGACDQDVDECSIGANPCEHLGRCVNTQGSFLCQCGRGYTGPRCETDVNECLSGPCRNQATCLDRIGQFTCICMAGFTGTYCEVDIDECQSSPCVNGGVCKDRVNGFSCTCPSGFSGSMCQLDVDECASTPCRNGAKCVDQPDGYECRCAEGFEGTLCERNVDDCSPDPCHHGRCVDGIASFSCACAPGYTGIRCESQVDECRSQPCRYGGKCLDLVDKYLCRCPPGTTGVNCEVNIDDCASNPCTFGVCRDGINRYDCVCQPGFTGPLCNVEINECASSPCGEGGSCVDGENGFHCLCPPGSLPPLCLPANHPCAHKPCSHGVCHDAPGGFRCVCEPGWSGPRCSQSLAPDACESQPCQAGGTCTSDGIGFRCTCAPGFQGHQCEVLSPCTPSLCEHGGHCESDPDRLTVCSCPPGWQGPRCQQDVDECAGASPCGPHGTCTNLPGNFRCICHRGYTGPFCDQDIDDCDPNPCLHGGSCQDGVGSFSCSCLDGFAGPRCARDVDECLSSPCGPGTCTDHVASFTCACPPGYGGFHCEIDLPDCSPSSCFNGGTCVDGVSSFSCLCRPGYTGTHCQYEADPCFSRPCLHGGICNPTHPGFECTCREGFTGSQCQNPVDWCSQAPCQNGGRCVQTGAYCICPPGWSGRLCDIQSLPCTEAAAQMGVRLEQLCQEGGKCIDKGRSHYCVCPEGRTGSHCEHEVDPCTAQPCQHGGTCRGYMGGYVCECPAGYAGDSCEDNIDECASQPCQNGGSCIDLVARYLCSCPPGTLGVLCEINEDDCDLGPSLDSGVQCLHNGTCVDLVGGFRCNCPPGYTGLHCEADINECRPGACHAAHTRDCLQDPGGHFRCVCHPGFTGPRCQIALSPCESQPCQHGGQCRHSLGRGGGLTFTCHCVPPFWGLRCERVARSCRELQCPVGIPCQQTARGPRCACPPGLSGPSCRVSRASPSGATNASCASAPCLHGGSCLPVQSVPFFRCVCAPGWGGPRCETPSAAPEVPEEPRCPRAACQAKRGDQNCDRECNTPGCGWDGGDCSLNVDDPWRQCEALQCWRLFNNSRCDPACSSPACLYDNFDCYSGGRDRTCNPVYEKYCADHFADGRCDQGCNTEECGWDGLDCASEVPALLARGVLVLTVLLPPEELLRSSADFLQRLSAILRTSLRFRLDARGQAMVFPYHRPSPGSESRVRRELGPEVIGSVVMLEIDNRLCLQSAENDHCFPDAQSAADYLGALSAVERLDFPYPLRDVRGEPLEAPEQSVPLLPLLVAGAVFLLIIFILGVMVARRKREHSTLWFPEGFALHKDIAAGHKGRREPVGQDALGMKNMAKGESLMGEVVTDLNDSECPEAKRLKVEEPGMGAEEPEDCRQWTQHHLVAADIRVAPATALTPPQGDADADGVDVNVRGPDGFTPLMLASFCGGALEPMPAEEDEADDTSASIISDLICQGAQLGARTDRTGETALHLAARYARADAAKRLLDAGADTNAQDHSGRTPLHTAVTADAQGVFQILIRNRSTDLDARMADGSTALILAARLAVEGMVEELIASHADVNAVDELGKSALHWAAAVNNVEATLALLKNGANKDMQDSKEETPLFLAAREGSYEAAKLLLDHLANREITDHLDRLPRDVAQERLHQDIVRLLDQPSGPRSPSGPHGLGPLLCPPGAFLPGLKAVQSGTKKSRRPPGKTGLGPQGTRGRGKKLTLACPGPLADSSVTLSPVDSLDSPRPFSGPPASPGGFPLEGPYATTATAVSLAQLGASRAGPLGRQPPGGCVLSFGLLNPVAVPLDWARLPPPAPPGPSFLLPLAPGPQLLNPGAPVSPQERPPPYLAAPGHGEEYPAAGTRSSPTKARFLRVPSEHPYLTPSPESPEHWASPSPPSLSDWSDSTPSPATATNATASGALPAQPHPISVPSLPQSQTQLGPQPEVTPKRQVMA
Procedure: as §2

[10] = biological target: T1, full-length human Notch3 expressed on …; assay: competition ELISA on U2OS/hNotch3 cells; competitor 0.8 nM biotinylated ch75
Procedure: (§3) 96 well cell culture plates were seeded with U2OS/hNotch3 cells (cell culture plate, Co-star). […] After incubation for 2 hours, the plates were washed, as described above, and HRP-conjugated streptavidin (Southern Biotech) diluted 1:5000 in blocking buffer was applied. After incubation with streptavidin for 30 minutes, the plates were washed again before being developed with TMB solution for 10 minutes. […] Data plotting and analyses were performed with Microsoft Excel and Graphpad-Prism software.

[11] = biological target: T2, human Notch3 NRR recombinant protein …; assay: SPR (Biacore T100), antibody captured on anti-human IgG-Fc, Notch3 NRR as analyte, 1:1 Langmuir fit
Procedure: The kinetic constants of the anti-Notch3 NRR interactions were determined by surface plasmon resonance (Biacore® T100, Biacore Inc., Piscataway, N.J.). Flow cells of a CM5 chip were immobilized with approximately 10,000 response units (RU) of anti-human IgG-Fc (Biacore®) in 10 mM Glycine, pH 5.0 at 10 μl/min for 600 seconds. […] Association of four concentrations of human Notch3 NRR recombinant protein (from 3.7-100 nM) and a zero concentration (running buffer) at 100 μl/min were recorded for 3 minutes in TBS with 1 mM CaCl₂. Dissociation of the complexes was measured for 10 minutes. The surface of the chip was regenerated by injecting 3M MgCl₂ with 3 mM EGTA for 60 seconds at 10 μl/min. Curves obtained after subtraction of the reference and buffer signals were fitted to a 1:1 Langmuir binding model with Biacore® T100 Evaluation Software (Biacore®).

[12] = biological target: Notch3-NRR (human); assay: ELISA: NRR-Fc protein coated at 1 ug/ml, antibody applied at 5 ug/ml, goat anti-human Fc-HRP, TMB, O.D. 450 nM
Procedure: After 1 hour of incubation, plates were washed with PBS with 0.9 mM Mg²⁺ and Ca²⁺, before secondary goat anti-human Fc antibody conjugated with HRP were applied and incubated on the plates. After washing again, the plates were developed with TMB and the developing reactions were stopped by adding 0.18M H₂SO₄.

[13] = biological target: T4, human Notch1 NRR-Fc (human, UniProt P46531 1446-1733, limits assumed); assay: as above
T4 construct: domain: NRR region; Made in CHO-PACE cells; not shown: human IgG1 Fc fragment
T4 sequence (looked up): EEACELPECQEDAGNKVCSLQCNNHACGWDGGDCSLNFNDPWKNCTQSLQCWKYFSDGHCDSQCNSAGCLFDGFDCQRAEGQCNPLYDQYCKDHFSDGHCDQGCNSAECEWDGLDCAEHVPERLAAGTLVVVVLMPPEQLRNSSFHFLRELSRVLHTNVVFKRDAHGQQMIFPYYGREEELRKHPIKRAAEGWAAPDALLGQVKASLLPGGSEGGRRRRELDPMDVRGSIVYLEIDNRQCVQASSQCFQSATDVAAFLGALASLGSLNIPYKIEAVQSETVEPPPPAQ

[14] = biological target: T2, human Notch3 NRR recombinant protein …; assay: ELISA, recombinant protein, hybridoma supernatant
[15] = biological target: T5, mouse Notch3 NRR recombinant protein (Notch3 NRR_Avi_His tag) (mouse); assay: ELISA, recombinant protein, hybridoma supernatant
T5 construct: The entry includes the C-terminal Avi and His tag; S1-cleaved heterodimer as for the human protein
T5 chain: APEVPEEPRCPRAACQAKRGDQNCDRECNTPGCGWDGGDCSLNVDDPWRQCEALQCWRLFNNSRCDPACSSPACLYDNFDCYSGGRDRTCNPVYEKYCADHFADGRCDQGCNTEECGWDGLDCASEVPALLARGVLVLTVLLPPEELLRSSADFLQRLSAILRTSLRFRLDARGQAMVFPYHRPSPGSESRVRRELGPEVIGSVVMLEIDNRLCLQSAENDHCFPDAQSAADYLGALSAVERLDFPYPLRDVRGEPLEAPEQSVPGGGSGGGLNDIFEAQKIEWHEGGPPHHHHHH

[16] = biological target: T1, full-length human Notch3 expressed on …; assay: cell-based ELISA, HCC2429 cells; SD 0.009
Procedure: as §1

[17] = biological target: T1, full-length human Notch3 expressed on …; assay: cell-based ELISA, MDA-MB-468 cells; SD 0.054
Procedure: as §1

[18] = biological target: T1, full-length human Notch3 expressed on …; assay: cell-based ELISA, U2OS/hNotch3 cells; SD 0.077
Procedure: as §1

[19] = biological target: T1, full-length human Notch3 expressed on …; assay: competition ELISA on U2OS/hNotch3 cells; competitor 0.8 nM biotinylated ch28
Procedure: as §3

T1 sequence (Q9UM47 40-2321): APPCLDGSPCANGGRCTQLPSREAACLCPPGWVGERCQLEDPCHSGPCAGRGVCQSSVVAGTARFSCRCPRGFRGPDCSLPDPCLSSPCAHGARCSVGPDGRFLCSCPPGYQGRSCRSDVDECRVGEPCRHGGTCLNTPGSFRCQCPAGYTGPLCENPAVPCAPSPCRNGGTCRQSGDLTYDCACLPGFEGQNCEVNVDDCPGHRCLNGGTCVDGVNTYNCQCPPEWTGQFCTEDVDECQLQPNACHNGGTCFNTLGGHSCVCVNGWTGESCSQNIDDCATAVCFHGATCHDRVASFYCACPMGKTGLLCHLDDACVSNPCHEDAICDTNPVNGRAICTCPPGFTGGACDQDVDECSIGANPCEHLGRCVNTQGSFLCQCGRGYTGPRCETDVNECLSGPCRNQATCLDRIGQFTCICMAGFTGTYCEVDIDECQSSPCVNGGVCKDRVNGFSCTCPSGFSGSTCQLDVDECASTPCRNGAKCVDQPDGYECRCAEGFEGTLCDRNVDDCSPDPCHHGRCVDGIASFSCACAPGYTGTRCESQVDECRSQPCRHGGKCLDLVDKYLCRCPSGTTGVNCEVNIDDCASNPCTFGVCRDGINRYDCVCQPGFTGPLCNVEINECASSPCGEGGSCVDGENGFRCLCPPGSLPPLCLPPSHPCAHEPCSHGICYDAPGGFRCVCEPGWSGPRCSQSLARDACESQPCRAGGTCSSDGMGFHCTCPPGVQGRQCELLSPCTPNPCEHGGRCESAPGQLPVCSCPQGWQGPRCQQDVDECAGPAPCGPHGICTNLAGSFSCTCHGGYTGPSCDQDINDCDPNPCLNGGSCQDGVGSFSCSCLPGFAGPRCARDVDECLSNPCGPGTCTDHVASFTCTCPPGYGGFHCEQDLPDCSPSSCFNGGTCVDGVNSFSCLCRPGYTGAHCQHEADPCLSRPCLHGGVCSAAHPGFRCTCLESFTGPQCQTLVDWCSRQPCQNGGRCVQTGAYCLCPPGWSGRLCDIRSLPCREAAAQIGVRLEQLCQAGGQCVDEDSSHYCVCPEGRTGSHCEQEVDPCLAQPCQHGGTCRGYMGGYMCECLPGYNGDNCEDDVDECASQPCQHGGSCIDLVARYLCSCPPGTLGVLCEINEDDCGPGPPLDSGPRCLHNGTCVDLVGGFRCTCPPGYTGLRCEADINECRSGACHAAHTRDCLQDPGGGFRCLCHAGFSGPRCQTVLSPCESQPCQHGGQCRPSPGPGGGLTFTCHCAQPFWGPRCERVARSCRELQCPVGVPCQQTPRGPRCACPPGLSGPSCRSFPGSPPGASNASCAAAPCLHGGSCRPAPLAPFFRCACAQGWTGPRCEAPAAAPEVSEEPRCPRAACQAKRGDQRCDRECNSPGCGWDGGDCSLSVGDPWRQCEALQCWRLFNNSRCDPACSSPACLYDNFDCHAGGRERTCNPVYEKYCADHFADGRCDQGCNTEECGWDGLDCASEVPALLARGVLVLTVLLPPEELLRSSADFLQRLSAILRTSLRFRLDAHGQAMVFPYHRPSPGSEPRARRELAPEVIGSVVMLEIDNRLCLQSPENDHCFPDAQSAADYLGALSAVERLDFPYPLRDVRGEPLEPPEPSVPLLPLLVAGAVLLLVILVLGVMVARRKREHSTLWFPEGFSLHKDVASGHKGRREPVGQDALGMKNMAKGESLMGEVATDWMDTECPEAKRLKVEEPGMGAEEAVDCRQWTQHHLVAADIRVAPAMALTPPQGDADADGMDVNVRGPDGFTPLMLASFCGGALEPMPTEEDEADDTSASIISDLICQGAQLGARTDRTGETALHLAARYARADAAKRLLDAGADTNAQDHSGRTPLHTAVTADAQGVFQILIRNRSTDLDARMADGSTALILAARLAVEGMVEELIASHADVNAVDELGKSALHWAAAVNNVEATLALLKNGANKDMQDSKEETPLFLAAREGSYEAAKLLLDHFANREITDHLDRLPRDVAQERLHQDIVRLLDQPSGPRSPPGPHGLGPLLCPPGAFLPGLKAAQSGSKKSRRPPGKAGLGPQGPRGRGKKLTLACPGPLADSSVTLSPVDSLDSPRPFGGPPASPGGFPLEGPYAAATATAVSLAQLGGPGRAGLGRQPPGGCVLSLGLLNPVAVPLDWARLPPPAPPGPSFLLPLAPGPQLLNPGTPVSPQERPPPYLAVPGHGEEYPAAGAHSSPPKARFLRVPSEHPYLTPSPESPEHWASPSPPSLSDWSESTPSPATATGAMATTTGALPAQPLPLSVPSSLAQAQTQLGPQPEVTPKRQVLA

B1: hu28-vc0101 (Notch3-28-v1010-hG1-(C)_mcValCitPABC-#54) (antibody, human IgG1, kappa, V domains shown)
VH: EVQLVESGGGLVQPGGSLRLSCAASGFTFRDYGMTWVRQAPGKGLEWVAYISSGSNYIYYAEAVKGRFTISRDNAKNSLYLQMNSLRAEDTAVYYCARRGPFVLDAWGQGTLVTVSS
VL: DIQMTQSPSSLSASVGDRVTITCKASQSINRYLHWYQQKPGKAPKLLIYNANGLQTGVPSRFSGSGSGTDFTLTISSLQPEDFATYYCLQHNTWPDTFGGGTKVEIKR
modifications: vc0101 linker-payload on cysteine residues after partial reduction; sites not specified
notes: Antibody-drug conjugate of hu28
[1]
  IC50 of cytotoxicity (MTS viability), HCC2429 cells, repeat 1: 473 ng Ab/mL
  IC50 of cytotoxicity (MTS viability), HCC2429 cells, repeat 2: 2940 ng Ab/mL
  IC50 of cytotoxicity (MTS viability), MDA-MB-468/hNotch3 cells, repeat 1: 3.2 ng Ab/mL
  IC50 of cytotoxicity (MTS viability), MDA-MB-468/hNotch3 cells, repeat 2: 3 ng Ab/mL
  IC50 of cytotoxicity (MTS viability), MDA-MB-468 cells: 6540 ng Ab/mL
  IC50 of cytotoxicity (MTS viability), OVCAR3 cells: 306 ng Ab/mL
  IC50 of cytotoxicity (MTS viability), U2OS/hNotch3 cells: 1330 ng Ab/mL
[2]
  IC50 of cytotoxicity, MDA-MB-468/hNotch3 cells, Notch3 siRNA (reduced Notch3 expression): 3340 ng Ab/mL
  IC50 of cytotoxicity, MDA-MB-468/hNotch3 cells, control siRNA: 3 ng Ab/mL
[3]
  EC50: 0.176 nM
[4]
  EC50: 0.273 nM
[5]
  EC50: 0.266 nM

B2: ch75-mc0131 (Notch3-75-cG1-(C)_mc-0#118) (antibody, V domains shown)
VH: QVKLLQSGAALVKPGASVKMSCKASGYAFTDYWVTWVKQSHGKSLEWIGEISPNSGGTNFNEKFKGKATLTVDKSTSTAYMELSRLTSEDSAIYYCTRGEIRYNWFAYWGQGTLVTVSS
VL: DIQMTQSPSSLSASVGDRVTITCKASQNVGNNIAWYQQKPGKAPKLLIYYASNRYTGVPSRFSGSGYGTDFTLTISSLQPEDFATYYCQRLYNSPFTFGGGTKVEIK
[6]
  IC50 of cytotoxicity (MTS viability), OVCAR3 cells: 289 ng Ab/mL
  IC50 of cytotoxicity (MTS viability), U2OS/hNotch3 cells: 19 ng Ab/mL

B3: ch28-me0131 (Notch3-28-cG1-(C)_me-0#118) (antibody, V domains shown)
VH: EVQLVESGGGLVQPGRSLTLSCVASGFTFRDYGMTWIRQAPGKGLTWVAYISSGSNYIYYAEAVKGRFTISRDNAKNTLYLQMTSLRSEDTALYFCTRRGPFVLDAWGQGASVTVSS
VL: DIQMTQSPSFLSASVGDRVTINCKASQSINRYLHWFQQKLGEAPKLLIYNANGLQTGIPSRFSGSGSGTDFTLTISSLQSEDVATYFCLQHNTWPDTFGAGTKLELK
[6]
  IC50 of cytotoxicity (MTS viability), HCC2429 cells: 30 ng Ab/mL

B4: ch75-me0131 (Notch3-75-cG1-(C)_me-0#118) (antibody, V domains shown)
VH: B2 VH
VL: B2 VL
[6]
  IC50 of cytotoxicity (MTS viability), MDA-MB-468 cells: 259 ng Ab/mL

B5: ch75-mc3377 (Notch3-75-cG1-(C)_mc-#115) (antibody, V domains shown)
VH: B2 VH
VL: B2 VL
[6]
  IC50 of cytotoxicity (MTS viability), MDA-MB-468 cells: 560 ng Ab/mL

B6: ch28-vc0101 (Notch3-28-cG1-(C)_mcValCitPABC-#54) (antibody, V domains shown)
VH: B3 VH
VL: B3 VL
[6]
  IC50 of cytotoxicity (MTS viability), OVCAR3 cells: 635 ng Ab/mL

B7: ch75-vc6780 (Notch3-75-cG1-(C)_mcValCitPABC-#112) (antibody, V domains shown)
VH: B2 VH
VL: B2 VL
[6]
  IC50 of cytotoxicity (MTS viability), OVCAR3 cells: 922 ng Ab/mL

B8: rat-human chimeric antibody 75 (ch75) (antibody, V domains shown)
VH: B2 VH
VL: NIVMTQSPKSMSISVGDRVTMNCKASQNVGNNIAWYQQKPGQSPKLLIYYASNRYTGVPDRFTGGGYGTDFTLTINSMQAEDAAFYYCQRLYNSPFTFGSGTKLEIK
notes: also called ch75-hIgG1; ch75-hulgG1
[7]
  EC50: ≤ 1 nM
[8]
  EC50: 0.2 nM
[9]
  binding result: no binding
[10]
  EC50: 1.3 nM
[11]
  Kd: 17.4 nM
  koff: 0.000992 s⁻¹
  kon: 57000 M⁻¹ s⁻¹
[12]
  O.D. 450 nM (ELISA, relative binding capacity): 1.72
[13]
  binding result: no binding (tested: 5 ug/ml)

B9: parental rat clone 28 (r28) (antibody, V domains shown)
VH: B3 VH
VL: B3 VL
notes: Rat monoclonal antibody from hybridoma, tested as hybridoma supernatant
[14]
  O.D. 450 nM: ≥ 1 O.D. 450 nM
[15]
  O.D. 450 nM: ≥ 1 O.D. 450 nM

B10: hu28 (humanized r28 variant VH1.0/VL1.0) (antibody, human IgG1, kappa, V domains shown)
VH: B1 VH
VL: B1 VL
notes: Human IgG1/kappa; also called hu28 VH1.0/VL1.0; hu28 VH1.0/V1.0
[8]
  EC50: 0.093 nM
[9]
  EC50: 0.13 nM
[16]
  EC50: 0.132 nM
[17]
  EC50: 0.192 nM
[18]
  EC50: 0.172 nM
[19]
  EC50: 3.1 nM
[11]
  Kd: 0.9 nM
  koff: 0.000347 s⁻¹
  kon: 386000 M⁻¹ s⁻¹
